Reference: patent publication US20260139001A1 (Harvard, published 2026)

Target: RBD (Severe acute respiratory syndrome …, UniProt P59594)

B1: Wuhan-NS (VHH72 NoK V104K conjugated with NBD-x; V104NBDxK) (VHH)
VHH: QVQLQESGGGLVQAGGSLRLSCAASGRTFSEYAMGWFRQAPGREREFVATISWSGGSTYYTDSVRGRFTISRDNARNTVYLQMNSLRPDDTAVYYCAAAGLGTKVSEWDYDYDYWGQGTQVTVSS
  EC50: 123 nM
